Source: patent US20250000992A1 (Eli Lilly, published 2025)

Target: T1, Sortilin receptor on HEK293 cells (UniProt Q99523 78-831, limits assumed)
T1 construct: whole, on cells
Test: +/- matrix drawn left of the bar chart (Cathepsin D ELISA, HEK293 cells); the binding assay behind the marks is not given

B1: His-PGRN (ligand)
single chain: HHHHHHGGGGQGGGGQGGGGQENLYFQSGGGGQTRCPDGQFCPVACCLDPGGASYSCCRPLLDKWPTTLSRHLGGPCQVDAHCSAGHSCIFTVSGTSSCCPFPEAVACGDGHHCCPRGFHCSADGRSCFQRSGNNSVGAIQCPDSQFECPDFSTCCVMVDGSWGCCPMPQASCCEDRVHCCPHGAFCDLVHTRCITPTGTHPLAKKLPAQRTNRAVALSSSVMCPDARSRCPDGSTCCELPSGKYGCCPMPNATCCSDHLHCCPQDTVCDLIQSKCLSKENATTDLLTKLPAHTVGDVKCDMEVSCPDGYTCCRLQSGAWGCCPFTQAVCCEDHIHCCPAGFTCDTQKGTCEQGPHQVPWMEKAPAHLSLPDPQALKRDVPCDNVSSCPSSDTCCQLTSGEWGCCPIPEAVCCSDHQHCCPQGYTCVAEGQCQRGSEIVAGLEKMPARRASLSHPRDIGCDQHTSCPVGQTCCPSLGGSWACCQLPHAVCCEDRQHCCPAGYTCNVKARSCEKEVVSAQPATFLARSPHVGVKDVECGEGHFCHDNQTCCRDNRQGWACCPYRQGVCCADRRHCCPAGFRCAARGTKCLRREAPRWDAPLRDPALRQLL
notes: 55; also called His tagged PGRN; His-Tagged PGRN
**Q.** Does B1 bind?
**A.** binds
